{
  "source": "patent US12577571B2",
  "about": "“Mutant DNase1L3 with improved serum half-life” (Texas Tech University System, priority 2019, dated 2026)",
  "key": {"plasmid DNA": {"tested_on": "plasmid DNA", "assay": "Plasmid DNA degradation by Dnase1L3 (agarose gel)", "assay_type": "biochemical", "settings": "increasing dilutions with 200 ng plasmid DNA, 30 min at 37° C., 200 mM Tris pH 7.4, 50 mM MgCl2, 20 mM CaCl2; 1% agarose gel", "source_text": "FIGS. 1A to 1E show the results from the modified Dnase1L3 of the present invention. […] (FIG. 1A) Dnase1L3 was affinity purified with Nickel NTA agarose, then cleaved with Tobacco Etch Virus protease TEV protease. Cleaved Dnase1L3 was further purified by anion exchange and then by size exclusion chromatography. Fractions from the final size exclusion purification were resolved by SDS-PAGE and Coomassie stained. Fractions 7-9 show purified Dnase1L3 at the expected 36 kDa size. Molecular weight in kDa is shown. (FIG. 1B) The indicated amounts of purified Dnase1L3 were resolved by SDS-PAGE, transferred to nitrocellulose and probed with anti-Dnase1L3 primary antibody, anti-rabbit HRP secondary antibody and developed with enhanced chemiluminescence. (FIG. 1C) Recombinant, […] mM Tris pH 7.4, 50 mM MgCl2, 20 mM CaCl2 with or without 100 μM Dnase1L3 inhibitors fmoc-D-cyclohexylalanine (FCA) or Pontacyl Violet 6R (PV). Remaining plasmid DNA resolved on a 1% agarose gel. # indicates non-degraded DNA (i.e. supercoiled, nicked and linear DNA). The absence of DNA indicates degradation. (FIG. 1D) Purified Dnase1L3 was conjugated to PEG. Unconjugated Dnase1L3, PEGylated Dnase1L3 (PEG-D1L3), or free PEG were resolved by SDS-PAGE and visualized with Coomassie Blue. The 36 kDa band has increased in size to 41 kDa, indicating successful PEGylation. Molecular weight in kDa is shown. […]"}, "[1]": {"tested_on": "DNA present as chromatin or apoptotic bodies", "settings": "background, Sisirak et al 2016, Napirei et al 2009, Wilber et al 2002; cited from earlier work"}},
  "data": [
    {"molecule": "PEGylated Dnase1L3: Purified Dnase1L3 conjugated to PEG (PEG-maleimide); band shifts from 36 kDa to 41 kDa (conjugate, UniProt Q13609 21-305, looked up, PEG-maleimide conjugate, Purified Dnase1L3 conjugated to PEG (PEG-maleimide); band shifts from 36 kDa to 41 kDa) Deoxyribonuclease gamma: MRICSFNVRSFGESKQEDKNAMDVIVKVIKRCDIILVMEIKDSNNRICPILMEKLNRNSRRGITYNYVISSRLGRNTYKEQYAFLYKEKLVSVKRSYHYHDYQDGDADVFSREPFVVWFQSPHTAVKDFVIIPLHTTPETSVKEIDELVEVYTDVKHRWKAENFIFMGDFNAGCSYVPKKAWKNIRLRTDPRFVWLIGDQEDTTVKKSTNCAYDRIVLRGQEIVSSVVPKSNSVFDFQKAYKLTEEEALDVSDHFPVEFKLQSSRAFTNSKKSVTLRKKTKSKRS", "values": [
      {"measurement": "endonuclease activity (degradation of plasmid DNA)", "setting": "plasmid DNA", "result": "potent endonuclease"}
    ]},
    {"molecule": "Dnase1: DNase I protein of the background art; poorly digests chromatin DNA (protein, UniProt P24855 23-282, looked up) Deoxyribonuclease-1: LKIAAFNIQTFGETKMSNATLVSYIVQILSRYDIALVQEVRDSHLTAVGKLLDNLNQDAPDTYHYVVSEPLGRNSYKERYLFVYRPDQVSAVDSYYYDDGCEPCGNDTFNREPAIVRFFSRFTEVREFAIVPLHAAPGDAVAEIDALYDVYLDVQEKWGLEDVMLMGDFNAGCSYVRPSQWSSIRLWTSPTFQWLIPDSADTTATPTHCAYDRIVVAGMLLRGAVVPDSALPFNFQAAYGLSDQLAQAISDHYPVEVMLK", "values": [
      {"measurement": "digestion of DNA present as chromatin or apoptotic bodies", "setting": "[1]", "result": "poorly digests"}
    ]}
  ]
}
